Paper PMC6255812

Key:
[1] = target: full-length ACA8 (plasma-membrane Ca2+-ATPase ACA8) (UniProt Q9LF79); assay: native MS; DDM-solubilised ACA8, apo and with CaM; 200 mM ammonium acetate pH 8.3, 0.018% DDM; nanoESI, spectra at 200 V collision energy
[2] = target: full-length ACA8 (plasma-membrane Ca2+-ATPase ACA8) (UniProt Q9LF79)
[3] = target: fluorescein-labeled regulatory domain of ACA8 (ACA8RD, residues 1-130) (UniProt Q9LF79); assay: fluorescence polarisation; fluorescence anisotropy, displacement; CaM added to a preformed complex of ACA8core (POPC nanodiscs) and labelled ACA8RD; decrease in anisotropy
Sequence of fluorescein-labeled regulatory domain of ACA8 (ACA8RD, residues 1-130) (Q9LF79 other isoform, or with tags, fused parts or gaps): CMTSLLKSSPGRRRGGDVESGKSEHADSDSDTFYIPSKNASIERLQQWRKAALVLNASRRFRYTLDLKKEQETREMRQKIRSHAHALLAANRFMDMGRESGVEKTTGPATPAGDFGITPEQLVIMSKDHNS

Sequence of full-length ACA8 (plasma-membrane Ca2+-ATPase ACA8) (Q9LF79 whole entry, the tested form may be a part): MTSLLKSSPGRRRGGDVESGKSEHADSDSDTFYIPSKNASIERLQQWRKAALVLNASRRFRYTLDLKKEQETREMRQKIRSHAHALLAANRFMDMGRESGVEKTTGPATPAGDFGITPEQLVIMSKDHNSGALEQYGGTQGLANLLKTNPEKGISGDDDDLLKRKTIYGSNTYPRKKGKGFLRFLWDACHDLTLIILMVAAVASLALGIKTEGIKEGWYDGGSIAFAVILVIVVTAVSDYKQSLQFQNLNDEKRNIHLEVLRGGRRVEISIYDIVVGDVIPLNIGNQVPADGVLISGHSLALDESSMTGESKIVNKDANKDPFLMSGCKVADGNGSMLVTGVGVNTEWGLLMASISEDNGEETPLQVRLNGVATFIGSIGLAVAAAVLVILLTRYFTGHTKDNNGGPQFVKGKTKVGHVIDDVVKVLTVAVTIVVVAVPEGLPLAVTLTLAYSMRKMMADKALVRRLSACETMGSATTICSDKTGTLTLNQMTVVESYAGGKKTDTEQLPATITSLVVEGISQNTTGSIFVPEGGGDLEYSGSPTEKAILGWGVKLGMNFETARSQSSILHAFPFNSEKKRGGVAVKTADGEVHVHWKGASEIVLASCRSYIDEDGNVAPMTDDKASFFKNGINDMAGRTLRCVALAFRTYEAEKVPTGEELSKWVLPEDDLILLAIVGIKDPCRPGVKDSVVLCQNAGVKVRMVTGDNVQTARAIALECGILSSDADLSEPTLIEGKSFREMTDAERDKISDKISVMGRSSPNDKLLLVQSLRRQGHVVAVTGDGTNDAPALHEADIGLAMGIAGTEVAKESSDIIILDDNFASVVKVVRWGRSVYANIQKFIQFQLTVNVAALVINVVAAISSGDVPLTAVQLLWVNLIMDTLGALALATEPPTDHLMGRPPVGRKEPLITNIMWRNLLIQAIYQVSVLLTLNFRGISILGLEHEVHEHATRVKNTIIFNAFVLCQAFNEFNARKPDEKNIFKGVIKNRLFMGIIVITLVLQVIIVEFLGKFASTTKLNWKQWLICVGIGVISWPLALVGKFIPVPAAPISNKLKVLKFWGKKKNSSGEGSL

“calmodulin CaM7 from A. thaliana (from UniProt P59220 1-149) (natural protein)” was tested, and the stoichiometry N [1] was under 2, the ATPase activity (Baginski assay) of detergent solubilized ACA8 with CaM against basal activity without CaM [2] was 2 fold and the K0.5 [3] was 120 nM.
